T1: Par(1-170) (Staphylococcus aureus plasmid pSK1, UniProt Q9L8I7 1-170)
T1 sequence: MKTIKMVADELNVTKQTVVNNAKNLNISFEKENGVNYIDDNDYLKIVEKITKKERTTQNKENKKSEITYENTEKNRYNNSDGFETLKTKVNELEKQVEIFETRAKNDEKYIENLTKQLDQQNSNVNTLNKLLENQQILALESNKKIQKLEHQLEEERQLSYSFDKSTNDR

B1: pSK1 Par(1–170) (domain or fragment)
chain: MKTIKMVADELNVTKQTVVNNAKNLNISFEKENGVNYIDDNDYLKIVEKITKKERTTQNKENKKSEITYENTEKNRYNNSDGFETLKTKVNELEKQVEIFETRAKNDEKYIENLTKQLDQQNSNVNTLNKLLENQQILALESNKKIQKLEHQLEEERQLSYSFDKSTNDR
B2: pSK1 Par(78–170) (domain or fragment)
chain: NNSDGFETLKTKVNELEKQVEIFETRAKNDEKYIENLTKQLDQQNSNVNTLNKLLENQQILALESNKKIQKLEHQLEEERQLSYSFDKSTNDR
B3: palindromic 18-mer (crystallization site), FP (dsDNA)
DNA 1: ATGTTAGGTACCTAACTA
DNA 2: TAGTTAGGTACCTAACAT
B4: centromere repeat 1 (dsDNA)
DNA 1: ATGTTAGGTGCCTAACTA
DNA 2: TAGTTAGGCACCTAACAT
B5: centromere repeat 2/5/7 (dsDNA)
DNA 1: ATGTTAGGTAGTAAACTA
DNA 2: TAGTTTACTACCTAACAT
B6: centromere repeat 3 (dsDNA)
DNA 1: ATGTTAGGTGGTAAACTA
DNA 2: TAGTTTACCACCTAACAT
B7: centromere repeat 4 (dsDNA)
DNA 1: ATGTTAGGCGGTAAACTA
DNA 2: TAGTTTACCGCCTAACAT
B8: centromere repeat 6 (dsDNA)
DNA 1: ATGTTAGGTACTTAGCTA
DNA 2: TAGCTAAGTACCTAACAT
B9: half site mutant 18-mer (dsDNA)
DNA 1: ATGTTAGGTACCCGACTA
DNA 2: TAGTCGGGTACCTAACAT

How the values were obtained:
[1] = molecular target: the molecule itself; test: SEC
[2] = molecular target: T1, Par(1-170); test: fluorescence polarization

Binder	stoichiometry N [1]	Kd [2] [nM]
B1	4	–
B2	4	–
B3	–	43.4 ± 1.5
B4	–	67.5 ± 3.2
B5	–	66.5 ± 4.9
B6	–	62.7 ± 1.3
B7	–	140 ± 10
B8	–	90.2 ± 5.6
B9	–	195 ± 10.8

Reference: publication PMC9595883 (Journal of molecular biology, 2022)
